# In the RNAGym collection of RNA variant scans (doi:10.1093/molbev/msab373):
# B1: Azoarcus group I ribozyme (parent)
# chain: GUGCCUUGCGCCGGGAAACCACGCAAGGGAUGGUGUCAAAUUCGGCGAAACCUAAGCGCCCGCCCGGGCGUAUGGCAACGCCGAGCCAAGCUUCGGCGCCUGCGCCGAUGAAGGUGUAGAGACUAGACGGCACCCACCUAAGGCAAACGCUAUGGUGAAGGCAUAGUCCAGGGAGUGGCGAAAGUCACACAAACCGG
# Variants of: B1
# Assay: reverse-splicing fitness (ratio to wild type); higher = more active; in vitro selection; Mg2+ level not given
# In short: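 An in vitro group I ribozyme library with randomized positions was T7-transcribed and gel-purified. In triplicate, 10 pmol RNA in EPPS pH 7.5 was reacted with 50 pmoles of a 30-nt RNA substrate for 1 h at 37 °C across several added MgCl2 levels (1–48 mM), then stopped with EDTA. Products were reverse transcribed from a substrate-complementary primer, PCR-amplified and sequenced (HiSeq 4000). Fitness is a variant's read proportion after selection over that before, normalised to wild type.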
row,Variant,reverse-splicing fitness
1,C82G A111G A120U A145U U176A,0.0168
2,C82G A111G A120U A145U C150G,0.00894
3,C82G A111G A120U A145U C150A,0.00764
4,C82G A111G A120U A145U C150U,0.04
5,C82G A111G A120G C169U,0.0144
6,C82G A111G A120G C169G,0.0219
7,C82G A111G A120G C169A,0.0124
8,C82G A111G A120U A145U C150U C169A U176G,0.00186
9,C82G A111G A120U A145U C150U C169A U176C,0.00239
10,C82G A111G A120U A145U C150U C169A U176A,0.00294
11,C82G A111G A120U A145C C150U C169G U176C,0.0031
12,C82G A111G A120U A145C C150U C169G U176G,0.00185
13,C82G A111G A120U A145C C150U C169G U176A,0.00296
14,C82G A111G A120G C150U C169A U176C,0.0197
15,C82G A111G A120G C150U C169A U176A,0.0193
16,C82G A111G A120G C150U C169A U176G,0.00607
17,C82G A111G A120U A145G C150A C169G,0.00639
18,C82G A111G A120U A145G C150A C169U,0.00426
19,C82G A111G A120U A145G C150A C169A,0.00593
20,C82G A111G A120G C150A C169A U176C,0.0216
21,C82G A111G A120G C150A C169A U176G,0.00698

row,Variant,reverse-splicing fitness
1,C82G A111G A120G C150A C169A U176A,0.0233
2,C82G A111G A120U C150A C169G U176G,0.00187
3,C82G A111G A120U C150A C169G U176A,0.00749
4,C82G A111G A120U C150A C169G U176C,0.00399
5,C82G A111G A120G C150G C169U U176A,0.0119
6,C82G A111G A120G C150G C169U U176G,0.00715
7,C82G A111G A120G C150G C169U U176C,0.0158
8,C82G A111G A120G C150A,0.0101
9,C82G A111G A120G C150G,0.00784
10,C82G A111G A120G C150U,0.0156
11,C82G A111G A120U A145U C150U U176C,0.0184
12,C82G A111G A120U A145U C150U U176G,0.00444
13,C82G A111G A120U A145U C150U U176A,0.0117
14,C82G A111G A120G C150U C169G,0.0154
15,C82G A111G A120G C150U C169A,0.0118
16,C82G A111G A120G C150U C169U,0.0114
17,C82G A111G A120U A145C C150G C169U U176G,0.00221
18,C82G A111G A120U A145C C150G C169U U176A,0.00286
19,C82G A111G A120U A145C C150G C169U U176C,0.00238
20,C82G A111G A120U A145C C150G C169A U176A,0.00237
21,C82G A111G A120U A145C C150G C169A U176G,0.00183

row,Variant,reverse-splicing fitness
1,C82G A111G A120U A145C C150G C169A U176C,0.00236
2,C82G A111G A120G A145U C150G C169A U176C,0.0133
3,C82G A111G A120G A145U C150G C169A U176A,0.0118
4,C82G A111G A120G A145U C150G C169A U176G,0.00555
5,C82G A111G A120G U176G,0.00869
6,C82G A111G A120G U176C,0.0217
7,C82G A111G A120G U176A,0.0172
8,C82G A111G A120G A145U C169G,0.0203
9,C82G A111G A120G A145U C169U,0.012
10,C82G A111G A120G A145U C169A,0.0118
11,C82G A111G A120U,0.0726
12,C82G A111G A120U C150A C169U,0.00399
13,C82G A111G A120U C150A C169A,0.00558
14,C82G A111G A120U C150A C169G,0.00433
15,C82G A111G A120U A145G C150A C169G U176C,0.00625
16,C82G A111G A120U A145G C150A C169G U176G,0.00219
17,C82G A111G A120U A145G C150A C169G U176A,0.0128
18,C82G A111G A120U A145G C150A U176A,0.00897
19,C82G A111G A120U A145G C150A U176C,0.00919
20,C82G A111G A120U A145G C150A U176G,0.00391
21,C82G A111G A120U A145C C169U U176A,0.00244

row,Variant,reverse-splicing fitness
1,C82G A111G A120U A145C C169U U176G,0.00131
2,C82G A111G A120U A145C C169U U176C,0.00228
3,C82G A111G A120U C150A C169A U176G,0.00223
4,C82G A111G A120U C150A C169A U176C,0.00424
5,C82G A111G A120U C150A C169A U176A,0.00549
6,C82G A111G A120U A145C C150A C169G U176A,0.00277
7,C82G A111G A120U A145C C150A C169G U176C,0.00215
8,C82G A111G A120U A145C C150A C169G U176G,0.0019
9,C82G A111G A120U A145C C150U C169U U176G,0.00214
10,C82G A111G A120U A145C C150U C169U U176A,0.00258
11,C82G A111G A120U A145C C150U C169U U176C,0.00268
12,C82G A111G A120U A145U C150G C169A U176A,0.00415
13,C82G A111G A120U A145U C150G C169A U176C,0.00298
14,C82G A111G A120U A145U C150G C169A U176G,0.00219
15,C82G A111G A120U A145U C150A C169G U176C,0.00301
16,C82G A111G A120U A145U C150A C169G U176G,0.00181
17,C82G A111G A120U A145U C150A C169G U176A,0.00229
18,C82G A111G A120G C150A U176C,0.023
19,C82G A111G A120G C150A U176A,0.0148
20,C82G A111G A120G C150A U176G,0.0109
